Our source for the relative binding affinity values is US20150139990A1 (DAINIPPON SUMITOMO PHARMA, published 2015).

The chains are these.
T1: human CD81 mutant A164T (human, UniProt P60033 1-236, limits assumed)
T1 construct: as m30; not shown: C-terminal V5 and 6xHis tags
T1 sequence: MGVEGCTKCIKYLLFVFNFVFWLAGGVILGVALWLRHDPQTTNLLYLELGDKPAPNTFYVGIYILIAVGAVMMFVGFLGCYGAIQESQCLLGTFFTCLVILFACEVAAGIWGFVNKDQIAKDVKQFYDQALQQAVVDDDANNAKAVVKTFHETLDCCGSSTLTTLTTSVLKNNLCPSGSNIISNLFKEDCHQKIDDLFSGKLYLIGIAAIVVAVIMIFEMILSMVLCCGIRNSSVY

T2: human CD81 mutant V169A (human, UniProt P60033 1-236, limits assumed)
T2 construct: as m30; not shown: C-terminal V5 and 6xHis tags
T2 sequence: T1 sequence with T164A, V169A

T3: human CD81 mutant H151A (human, UniProt P60033 1-236, limits assumed)
T3 construct: as m30; not shown: C-terminal V5 and 6xHis tags
T3 sequence: T1 sequence with H151A, T164A

T4: human CD81 mutant G158S (human, UniProt P60033 1-236, limits assumed)
T4 construct: as m30; not shown: C-terminal V5 and 6xHis tags
T4 sequence: T1 sequence with G158S, T164A

T5: human CD81 mutant L165A (human, UniProt P60033 1-236, limits assumed)
T5 construct: as m30; not shown: C-terminal V5 and 6xHis tags
T5 sequence: T1 sequence with T164A, L165A

T6: human CD81 mutant I194A (human, UniProt P60033 1-236, limits assumed)
T6 construct: as m30; not shown: C-terminal V5 and 6xHis tags
T6 sequence: T1 sequence with T164A, I194A

T7: human CD81 mutant D137A (human, UniProt P60033 1-236, limits assumed)
T7 construct: as m30; not shown: C-terminal V5 and 6xHis tags
T7 sequence: T1 sequence with D137A, T164A

T8: human CD81 mutant L170A (human, UniProt P60033 1-236, limits assumed)
T8 construct: as m30; not shown: C-terminal V5 and 6xHis tags
T8 sequence: T1 sequence with T164A, L170A

B1: 002-A07 IgG4 antibody (antibody)
heavy: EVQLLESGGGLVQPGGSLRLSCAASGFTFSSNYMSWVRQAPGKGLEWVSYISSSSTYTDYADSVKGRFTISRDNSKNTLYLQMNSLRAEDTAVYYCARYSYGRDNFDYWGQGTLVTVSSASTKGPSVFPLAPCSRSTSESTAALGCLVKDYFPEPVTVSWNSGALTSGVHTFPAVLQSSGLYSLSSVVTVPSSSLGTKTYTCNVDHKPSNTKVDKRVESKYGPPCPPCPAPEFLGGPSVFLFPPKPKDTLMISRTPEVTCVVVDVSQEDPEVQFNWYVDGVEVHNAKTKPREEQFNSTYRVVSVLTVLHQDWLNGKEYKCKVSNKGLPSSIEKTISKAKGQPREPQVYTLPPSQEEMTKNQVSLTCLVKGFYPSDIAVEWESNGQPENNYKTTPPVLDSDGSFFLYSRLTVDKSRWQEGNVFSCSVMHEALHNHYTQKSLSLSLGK
light: QSVLTQPPSASGTPGQRVTISCTGSTSNIGAGYDTHWYQQLPGTAPKLLIYGNSNRPSGVPDRFSGSKSGTSASLAISGLRSEDEADYYCQSYDTNLSVWVFGGGTKLTVLGQPKAAPSVTLFPPSSEELQANKATLVCLISDFYPGAVTVAWKADSSPVKAGVETTTPSKQSNNKYAASSYLSLTPEQWKSHRSYSCQVTHEGSTVEKTVAPTECS
notes: human IgG4 S228P, lambda light chain
B2: 002-A07 N113Q (antibody, human IgG4 S228P, lambda, V domains shown)
VH: EVQLLESGGGLVQPGGSLRLSCAASGFTFSSNYMSWVRQAPGKGLEWVSYISSSSTYTDYADSVKGRFTISRDNSKNTLYLQMNSLRAEDTAVYYCARYSYGRDNFDYWGQGTLVTVSS
VL: QSVLTQPPSASGTPGQRVTISCTGSTSNIGAGYDTHWYQQLPGTAPKLLIYGNSNRPSGVPDRFSGSKSGTSASLAISGLRSEDEADYYCQSYDTQLSVWVFGGGTKLTVLG
notes: IgG4 S228P; glycosylation site mutant of 002-A07 VL
B3: 002-A07 S115G (antibody, human IgG4 S228P, lambda, V domains shown)
VH: B2 VH
VL: B2 VL with Q96N, S98G
notes: as for B2
B4: 002-A07 N113G (antibody, human IgG4 S228P, lambda, V domains shown)
VH: B2 VH
VL: B2 VL with Q96G
notes: as for B2
B5: 002-A07 S115A (antibody, human IgG4 S228P, lambda, V domains shown)
VH: B2 VH
VL: B2 VL with Q96N, S98A
notes: as for B2
B6: 002-A07 N113S (antibody, human IgG4 S228P, lambda, V domains shown)
VH: B2 VH
VL: B2 VL with Q96S
notes: as for B2
B7: 003-D07 (antibody, human IgG4 S228P, lambda, V domains shown)
VH: B2 VH with G102D
VL: B2 VL with P8F, Q40H, Q96N
notes: IgG4 S228P

Positions count from the first letter of the chain named. Numbers in names are those of the source. Where only a bound is given, the exact number is not on record here.

The target of the first assay is T1, human CD81 mutant A164T. Kind of assay: ELISA.
As for B1, the relative binding affinity is below 20%.
Consider B2, for which the relative binding affinity is below 20%.
In the case of B3, the relative binding affinity is below 20%.
Consider B4, for which the relative binding affinity was below 20%.
As to B5, the relative binding affinity was below 20%.
Molecule B6 showed a relative binding affinity below 20%.
The molecule B7 gave a relative binding affinity below 20%.

The next assay has as its target T2, human CD81 mutant V169A. In words: ELISA.
B1 came in with a relative binding affinity below 20%.
On the same count and under the same terms, next, B2: below 20%.
The same measure, in the same setting: next, B3: below 20%; B4: below 20%; B5: below 20%.
Turning to B6, the relative binding affinity was below 20%.
With B7, the relative binding affinity is below 20%.

A further assay concerns the target T3, human CD81 mutant H151A. Kind of assay: ELISA. (In general: In an ELISA, binding on a coated surface is turned into a signal by an enzyme label.)
Turning to B1, the relative binding affinity is below 20%.
On the same count and under the same terms, next, B2: below 20%; B4: below 20%.
Turning to B5, the relative binding affinity was below 20%.
The molecule B6 registered a relative binding affinity below 20%.

For the next assay, the target named is T4, human CD81 mutant G158S. Kind of assay: ELISA.
In the case of B1, the relative binding affinity was below 20%.
Take B2: the relative binding affinity was below 20%.
B3 had a relative binding affinity below 20%.
For B4, the relative binding affinity was below 20%.
The same measure, in the same setting: next, B5: below 20%.
Turning to B6, the relative binding affinity was below 20%.
For the molecule B7, the relative binding affinity was below 20%.

For a further assay, the target named is T5, human CD81 mutant L165A. In words: ELISA.
B1 displayed a relative binding affinity below 20%.
The same measure, in the same setting: next, B2: below 20%.
Molecule B3 came in with a relative binding affinity below 20%.
B4 displayed a relative binding affinity below 20%.
B5 showed a relative binding affinity below 20%.
Regarding B6, the relative binding affinity is below 20%.
On to B7, for which the relative binding affinity was below 20%.

A further assay has as its target T6, human CD81 mutant I194A. In words: ELISA.
For B1, the relative binding affinity was below 20%.
The molecule B2 yielded a relative binding affinity below 20%.
In turn, B3 gave a relative binding affinity below 20%.
In turn, B4 registered a relative binding affinity below 20%.
Consider B5, for which the relative binding affinity is below 20%.
Molecule B6 had a relative binding affinity below 20%.
B7 had a relative binding affinity below 20%.

In a further assay the target is T7, human CD81 mutant D137A. In words: ELISA.
In turn, B1 had a relative binding affinity below 20%.
In turn, B2 yielded a relative binding affinity below 20%.
On the same count and under the same terms, next, B3: below 20%; B4: below 20%; B5: below 20%.
On to B6, for which the relative binding affinity is below 20%.
Consider B7, for which the relative binding affinity is below 20%.

The next assay addresses T8, human CD81 mutant L170A. Kind of assay: ELISA.
Consider B4, for which the relative binding affinity is below 20%.
The same measure, in the same setting: next, B5: below 20%.
The same measure, in the same setting: next, B6: below 20%.
